From the supplement of paper PMC9170038

Tested on: MS2 coat protein
Assay: apparent KD of MS2 coat protein; designed switch direction (-1 OFF switch, 1 ON switch): -1; higher = weaker reporter binding
Procedure, shortened: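 Normalised cluster fluorescence was curve-fitted, and each design's median over clusters is its apparent KD. Before this, SNAP-549-labelled MS2 coat protein was titrated from 0.7 or 1.5 nM, doubling to 3 µM, over RNA switches transcribed on Illumina chips by stalled E. coli RNA polymerase. Titrations had no input, 200 uM small-molecule ligand, or an oligonucleotide input, and steps lasted 0.8–1.5 h (lowest) to 10–20 min (highest).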

[1] = input ligand: microRNA oligo, concentration not stated
[2] = Eterna round: R95, input ligand: FMN 200 uM
[3] = Eterna round: R95, input ligand: microRNA oligo, concentration not stated
[4] = Eterna round: R95, input ligand: none

| Sequence | apparent KD of MS2 coat protein (input ligand: FMN 200 uM) | apparent KD of MS2 coat protein (input ligand: none) | apparent KD of MS2 coat protein [1] | apparent KD of MS2 coat protein [2] | apparent KD of MS2 coat protein [3] | apparent KD of MS2 coat protein [4] |
| --- | --- | --- | --- | --- | --- | --- |
| UGAAGUUGUGUGAGGAUAUCGGGCCCGAAAGGGCCCGAGAAGGCACAUGAGGAUCACCCAUGUAAGCGGCUUCG [-37.8, -35.7 kcal, A 26%, 0-3] (Eterna round: R97, puzzle: Brourd's mod of Exclusion 4) | 15.8 nM | 19.6 nM | – | – | – | – |
| UGACGGAUAGGAUAUGUAUCGCCUGACAUGAGGAUCACCCAUGUGGUUCAUAAGUUGCCAACAGAAGGAUCAGAAA [Eternabot (L1) Solution 60] (Eterna round: R97, puzzle: Exclusion 5) | 129 nM | 180 nM | – | – | – | – |
| UGACUUCAUAUCACAUGAGGAUCACCCAUGUUAUUCAUCGCGUAGGAUAUCGAGGUUUAUUAUUACGAGAAGGACGUAUUGAUA [JR_ExcNG3_Sub074] (Eterna round: R96, puzzle: Exclusion NG 3) | 61.1 nM | 40.7 nM | 34.5 nM | – | – | – |
| UGAGAACAUGAGGAUCACCCAUGUAAGGAUAUGCGAAGAGUUCGGAGAGGUUGAGGAGGCAGAAGGUACAGGAG [JR_Exclu1_Sub043] (puzzle: Exclusion 1) | – | – | – | 46.8 nM | 35.8 nM | 58.7 nM |
| UGAGAACAUGAGGAUCACCCAUGUAAGGAUAUGCGAAGAGUUCGGAGAGGUUGAGGAGGCAGAAGGUACGGGAG [JR_Exclu1_Sub044] (puzzle: Exclusion 1) | – | – | – | 37.5 nM | 32.5 nM | 49.8 nM |
| UGAGAGUCAGGAUAUCGAAGGUAGUGGAGAGGAGUGUGGUACGAGAAGGGACAUGAGGAUCACCCAUGUAGGUG [JR_Exclusion4)Sub009] (puzzle: Exclusion 4) | – | – | – | – | 420 nM | – |
| UGAGUGCUGCGAGGAUAUACAUGAGGAUCACCCAUGUAAAUGUGUGAGGCUUUGCCUCACACAAUGUAGAAGGCGCAGUACUCU [JL ENG2 1.01] (Eterna round: R96, puzzle: Exclusion NG 2) | – | – | 9.17 nM | – | – | – |
| UGAGUGCUGCGAGGAUAUACAUGAGGAUCACCCAUGUAAUAGUGUGAGGCUUUGCCUCACACAAUGUAGAAGGCGCAGUACUCU [JL ENG2 1.02] (Eterna round: R96, puzzle: Exclusion NG 2) | 17.1 nM | 12.5 nM | 8.58 nM | – | – | – |
| UGAGUGCUGCGAGGAUAUACAUGAGGAUCACCCAUGUAAUCGUGUGAGGCUUUGCCUCACACGAUGUAGAAGGCGCAGUACUCU [JL ENG2 1.09] (Eterna round: R96, puzzle: Exclusion NG 2) | 9.84 nM | 11.9 nM | 8.97 nM | – | – | – |
| UGAGUGCUGCGAGGAUAUACAUGAGGAUCACCCAUGUAUUAGUGUGAGGCUUUGCCUCACACAAUGUAGAAGGCGCAGUACUCU [JL ENG2 1.03] (Eterna round: R96, puzzle: Exclusion NG 2) | 5.74 nM | 13.1 nM | 10.3 nM | – | – | – |
| UGAGUGGUGCGAGGAUAUACAUGAGGAUCACCCAUGUAAACGUGUGAGGCAAAGCCUCACACGAUGUAGAAGGCGCACUACUCU [Mat - Exclusion NG 2 - Mod of JL - D14] (Eterna round: R96, puzzle: Exclusion NG 2) | 24.7 nM | 19.5 nM | 12.4 nM | – | – | – |
| UGAUCAAAUGUCAGGAUAUGCUAUUAGAAAUAAUAGCAGAAGGGACAUGAGGAUCACCCAUGUCUUGUCGAUUU [Magic-01] (puzzle: Brourd's mod of Exclusion 4) | – | – | – | 93.5 nM | 19.2 nM | 20.1 nM |
| UGAUCAGACCGAGGAUAUACAUGUAGGACCCACGUGAGUGGGUCCAGUACAUGAGGAUCACCCAUGUAGAAGGCGGUCUGAUCU [JL ENG2 1.89] (Eterna round: R96, puzzle: Exclusion NG 2) | 241 nM | 94.6 nM | 70.6 nM | – | – | – |
| UGAUCAGACCGAGGAUAUACAUGUAGGACGCACGUGAGUGCGUCCAAUACAUGAGGAUCACCCAUGUAGAAGGCGGUCUGAUCU [JL ENG2 1.94] (Eterna round: R96, puzzle: Exclusion NG 2) | 181 nM | 86.7 nM | 76.4 nM | – | – | – |
| UGAUCAGACCGAGGAUAUAUAUGUAGGACGCACGUGAGUGCGUCCAAUACAUGAGGAUCACCCAUGUAGAAGGCGGUCUGAUCU [JL ENG2 1.97] (Eterna round: R96, puzzle: Exclusion NG 2) | 18.5 nM | 14.2 nM | 9.9 nM | – | – | – |
| UGAUCCAAAGAGGAUAUGUCGGGCCAGGGCCCAACAGAAGGCUUUACAUGAGGAUCACCCAUGUUCGCGACAUG [EX6 A.22] (Eterna round: R97, puzzle: Exclusion 6) | 481 nM | 558 nM | – | – | – | – |
| UGAUCCGGUGUGAGGAUAUUUAACCUCAUAUAGGUAAAGAAGGCACAUGAGGAUCACCCAUGUCGAGGCCCGAU [Eternabot (L2) Solution 74] (Eterna round: R97, puzzle: Brourd's mod of Exclusion 4) | 209 nM | 168 nM | – | – | – | – |
| UGAUCUAGCGGAGGAUAUACAUGAGGAUCACCCAUGUAAUGGUGACGUGCGUACAUGUCACCUGUGUAGAAGGCCGCUAGAUCU [JL ENG2 3.57] (Eterna round: R96, puzzle: Exclusion NG 2) | 11.3 nM | 16 nM | 15.6 nM | – | – | – |
| UGAUCUAGCGGAGGAUAUACAUGAGGAUCACCCAUGUAGACUCCAUGACCGUAGUCGUGGAGCGUGUAGAAGGCCGCUAGAUCU [JL ENG2 3.72] (Eterna round: R96, puzzle: Exclusion NG 2) | 19.2 nM | 12.2 nM | 10.3 nM | – | – | – |
| UGAUCUAGCGGAGGAUAUACAUGAGGAUCACCCAUGUAGACUCCAUGACCGUAGUCGUGGAGUGUGUAGAAGGCCGCUAGAUCU [JL ENG2 3.73] (Eterna round: R96, puzzle: Exclusion NG 2) | 15.2 nM | 12 nM | 9.33 nM | – | – | – |
| UGAUCUAGCGGAGGAUAUACAUGAGGAUCACCCAUGUAUAGGCUAUGACCGUAGUCGUGGCACAUGUAGAAGGCCGCUAGAUCU [JL ENG2 3.78] (Eterna round: R96, puzzle: Exclusion NG 2) | 43.7 nM | 15.2 nM | 12.8 nM | – | – | – |
